Reference: the supplement of paper PMC10266784

B1: library; numbered along this chain (parent)
chain: MAAAAAAAAEQQSSNGPVKKSMREKAVERRSVNKEHNSNFKAGYIPIDEDRLHKTGLRGRKGNLAICVIILLFILAVINLIITLVIWAVIRIGPNGCDSMEFHESGLLRFKQVSDMGVIHPLYKSTVGGRRNENLVITGNNQPIVFQQGTTKLSVENNKTSITSDIGMQFFDPRTQNILFSTDYETHEFHLPSGVKSLNVQKASTERITSNATSDLNIKVDGRAIVRGNEGVFIMGKTIEFHMGGNMELKAENSIILNGSVMVSTTRLPSSSSGDQLGSGDWVRYKLCMCADGTLFKVQVTSQNMGCQISDNPCGNTH

Variants of: B1
Test: SGCB cell-surface expression functional score (HA stain, bin4 vs bin1, normalised to synonymous) (log10 ratio); higher = more cell-surface SGCB (functional)
Method in brief: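 HEK293 cells stably expressing alpha-, gamma- and delta-sarcoglycan received codon-saturation libraries of HA-tagged, YFP-fused human beta-sarcoglycan by lentiviral transduction at MOI <0.1, performed in duplicate. Cells positive for YFP were sorted after 72 hours and cultured for 5–7 days, then stained on ice with Alexa Fluor 647 anti-HA and fixed. Fixed cells were sorted into four 5% intensity bins and amplicon-sequenced, and the log ratio of highest-bin to lowest-bin variant frequency, as a median over codons and transductions, gives the functional score. Per section, synonymous variants were scaled to mean 0, SD 0.5.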

Compared with MAAAAAAAAEQQSSNGPVKKSMREKAVERRSVNKEHNSNFKAGYIPIDEDRLHKTGLRGRKGNLAICVIILLFILAVINLIITLVIWAVIRIGPNGCDSMEFHESGLLRFKQVSDMGVIHPLYKSTVGGRRNENLVITGNEQPIVFQQGTTKLSVENNKTSITSDIGMQFFDPRTQNILFSTDYETHEFHLPSGVKSLNVQKASTERITSNATSDLNIKVDGRAIVRGNEGVFIMGKTIEFHMGGNMELKAENSIILNGSVMVSTTRLPSSSSGDQLGSGDWVRYKLCMCADGTLFKVQVTSQNMGCQISDNPCGNTH [N141E], MAAAAAAAAEQQSSNGPVKKSMREKAVERRSVNKEHNSNFKAGYIPIDEDRLHKTGLRGRKGNLAICVIILLFILAVINLIITLVIWAVIRIGPNGCDSMEFHESGLLRFKQVSDMGVIHPLYKSTVGGRRNENLVITGNPQPIVFQQGTTKLSVENNKTSITSDIGMQFFDPRTQNILFSTDYETHEFHLPSGVKSLNVQKASTERITSNATSDLNIKVDGRAIVRGNEGVFIMGKTIEFHMGGNMELKAENSIILNGSVMVSTTRLPSSSSGDQLGSGDWVRYKLCMCADGTLFKVQVTSQNMGCQISDNPCGNTH [N141P] is lower in “SGCB cell-surface expression functional score (log10)” value: -0.4 for the first, -0.87 for the second.

MAAAAAAAAEQQSSNGPVKKSMREKAVERRSVNKEHNSNFKAGYIPIDEDRLHKTGLRGRKGNLAICVIILLFILAVINLIITLVIWAVIRIGPNGCDSMEFHESGLLRFKQVSDMGVIHPLYKSTVGGRRNENLVITGNLQPIVFQQGTTKLSVENNKTSITSDIGMQFFDPRTQNILFSTDYETHEFHLPSGVKSLNVQKASTERITSNATSDLNIKVDGRAIVRGNEGVFIMGKTIEFHMGGNMELKAENSIILNGSVMVSTTRLPSSSSGDQLGSGDWVRYKLCMCADGTLFKVQVTSQNMGCQISDNPCGNTH [N141L] and MAAAAAAAAEQQSSNGPVKKSMREKAVERRSVNKEHNSNFKAGYIPIDEDRLHKTGLRGRKGNLAICVIILLFILAVINLIITLVIWAVIRIGPNGCDSMEFHESGLLRFKQVSDMGVIHPLYKSTVGGRRNENLVITGNKQPIVFQQGTTKLSVENNKTSITSDIGMQFFDPRTQNILFSTDYETHEFHLPSGVKSLNVQKASTERITSNATSDLNIKVDGRAIVRGNEGVFIMGKTIEFHMGGNMELKAENSIILNGSVMVSTTRLPSSSSGDQLGSGDWVRYKLCMCADGTLFKVQVTSQNMGCQISDNPCGNTH [N141K] are within 0.2 log units of each other in “SGCB cell-surface expression functional score (log10)” value: -0.45 for the first, -0.5 for the second.

Going from MAAAAAAAAEQQSSNGPVKKSMREKAVERRSVNKEHNSNFKAGYIPIDEDRLHKTGLRGRKGNLAICVIILLFILAVINLIITLVIWAVIRIGPNGCDSMEFHESGLLRFKQVSDMGVIHPLYKSTVGGRRNENLVITGNIQPIVFQQGTTKLSVENNKTSITSDIGMQFFDPRTQNILFSTDYETHEFHLPSGVKSLNVQKASTERITSNATSDLNIKVDGRAIVRGNEGVFIMGKTIEFHMGGNMELKAENSIILNGSVMVSTTRLPSSSSGDQLGSGDWVRYKLCMCADGTLFKVQVTSQNMGCQISDNPCGNTH [N141I] to MAAAAAAAAEQQSSNGPVKKSMREKAVERRSVNKEHNSNFKAGYIPIDEDRLHKTGLRGRKGNLAICVIILLFILAVINLIITLVIWAVIRIGPNGCDSMEFHESGLLRFKQVSDMGVIHPLYKSTVGGRRNENLVITGNFQPIVFQQGTTKLSVENNKTSITSDIGMQFFDPRTQNILFSTDYETHEFHLPSGVKSLNVQKASTERITSNATSDLNIKVDGRAIVRGNEGVFIMGKTIEFHMGGNMELKAENSIILNGSVMVSTTRLPSSSSGDQLGSGDWVRYKLCMCADGTLFKVQVTSQNMGCQISDNPCGNTH [N141F], the “SGCB cell-surface expression functional score (log10)” value rises from -0.7 to -0.33.

MAAAAAAAAEQQSSNGPVKKSMREKAVERRSVNKEHNSNFKAGYIPIDEDRLHKTGLRGRKGNLAICVIILLFILAVINLIITLVIWAVIRIGPNGCDSMEFHESGLLRFKQVSDMGVIHPLYKSTVGGRRNENLVITGNHQPIVFQQGTTKLSVENNKTSITSDIGMQFFDPRTQNILFSTDYETHEFHLPSGVKSLNVQKASTERITSNATSDLNIKVDGRAIVRGNEGVFIMGKTIEFHMGGNMELKAENSIILNGSVMVSTTRLPSSSSGDQLGSGDWVRYKLCMCADGTLFKVQVTSQNMGCQISDNPCGNTH [N141H] and MAAAAAAAAEQQSSNGPVKKSMREKAVERRSVNKEHNSNFKAGYIPIDEDRLHKTGLRGRKGNLAICVIILLFILAVINLIITLVIWAVIRIGPNGCDSMEFHESGLLRFKQVSDMGVIHPLYKSTVGGRRNENLVITGNGQPIVFQQGTTKLSVENNKTSITSDIGMQFFDPRTQNILFSTDYETHEFHLPSGVKSLNVQKASTERITSNATSDLNIKVDGRAIVRGNEGVFIMGKTIEFHMGGNMELKAENSIILNGSVMVSTTRLPSSSSGDQLGSGDWVRYKLCMCADGTLFKVQVTSQNMGCQISDNPCGNTH [N141G] are within 0.2 log units of each other in “SGCB cell-surface expression functional score (log10)” value: -0.24 for the first, -0.3 for the second.

Going from MAAAAAAAAEQQSSNGPVKKSMREKAVERRSVNKEHNSNFKAGYIPIDEDRLHKTGLRGRKGNLAICVIILLFILAVINLIITLVIWAVIRIGPNGCDSMEFHESGLLRFKQVSDMGVIHPLYKSTVGGRRNENLVITGNDQPIVFQQGTTKLSVENNKTSITSDIGMQFFDPRTQNILFSTDYETHEFHLPSGVKSLNVQKASTERITSNATSDLNIKVDGRAIVRGNEGVFIMGKTIEFHMGGNMELKAENSIILNGSVMVSTTRLPSSSSGDQLGSGDWVRYKLCMCADGTLFKVQVTSQNMGCQISDNPCGNTH [N141D] to MAAAAAAAAEQQSSNGPVKKSMREKAVERRSVNKEHNSNFKAGYIPIDEDRLHKTGLRGRKGNLAICVIILLFILAVINLIITLVIWAVIRIGPNGCDSMEFHESGLLRFKQVSDMGVIHPLYKSTVGGRRNENLVITGNMQPIVFQQGTTKLSVENNKTSITSDIGMQFFDPRTQNILFSTDYETHEFHLPSGVKSLNVQKASTERITSNATSDLNIKVDGRAIVRGNEGVFIMGKTIEFHMGGNMELKAENSIILNGSVMVSTTRLPSSSSGDQLGSGDWVRYKLCMCADGTLFKVQVTSQNMGCQISDNPCGNTH [N141M], the “SGCB cell-surface expression functional score (log10)” value rises from -0.21 to 0.71.
